Test results as given in patent EP3821250B1.

How the values were obtained:
[1] = target: anti-A2M antibody (MAB) labeled with a donor fluorophore; assay: TR-FRET competition against acceptor-labeled A2M in whole blood, multiplex calibrators (VCAM-1 + A2M), 30 min; A2M 200 ug/mL (FIG. 2I)
[2] = target: anti-A2M antibody (MAB) labeled with a donor fluorophore; assay: TR-FRET competition against acceptor-labeled A2M in whole blood, multiplex calibrators (VCAM-1 + A2M), 30 min; A2M 500 ug/mL (FIG. 2I)
[3] = target: anti-A2M antibody (MAB) labeled with a donor fluorophore; assay: TR-FRET competition against acceptor-labeled A2M in whole blood, multiplex calibrators, 30 min; A2M 0 ug/mL, reference (FIG. 2I)
[4] = target: anti-A2M antibody (MAB) labeled with a donor fluorophore; assay: TR-FRET competition against acceptor-labeled A2M in whole blood, singleplex calibrators, 5 min; A2M 500 ug/mL (FIG. 2I)
[5] = target: anti-A2M antibody (MAB) labeled with a donor fluorophore; assay: TR-FRET competition against acceptor-labeled A2M in whole blood, singleplex calibrators, 30 min; A2M 2000 ug/mL (FIG. 2I)
[6] = target: anti-A2M antibody (MAB) labeled with a donor fluorophore; assay: TR-FRET competition against acceptor-labeled A2M in whole blood, multiplex calibrators (VCAM-1 + A2M), 30 min; A2M 2000 ug/mL (FIG. 2I)
[7] = target: anti-A2M antibody (MAB) labeled with a donor fluorophore; assay: TR-FRET competition against acceptor-labeled A2M in whole blood, singleplex calibrators, 30 min; A2M 1000 ug/mL (FIG. 2I)
[8] = target: anti-A2M antibody (MAB) labeled with a donor fluorophore; assay: TR-FRET competition against acceptor-labeled A2M in whole blood, singleplex calibrators, 5 min; A2M 0 ug/mL, reference (FIG. 2I)
[9] = target: anti-A2M antibody (MAB) labeled with a donor fluorophore; assay: TR-FRET competition against acceptor-labeled A2M in whole blood, singleplex calibrators, 30 min; A2M 500 ug/mL (FIG. 2I)
[10] = target: anti-A2M antibody (MAB) labeled with a donor fluorophore; assay: TR-FRET competition against acceptor-labeled A2M in whole blood, multiplex calibrators (VCAM-1 + A2M), 5 min; A2M 500 ug/mL (FIG. 2I)
[11] = target: anti-A2M antibody (MAB) labeled with a donor fluorophore; assay: TR-FRET competition against acceptor-labeled A2M in whole blood, multiplex calibrators (VCAM-1 + A2M), 5 min; A2M 2000 ug/mL (FIG. 2I)
[12] = target: anti-A2M antibody (MAB) labeled with a donor fluorophore; assay: TR-FRET competition against acceptor-labeled A2M in whole blood, singleplex calibrators, 5 min; A2M 1000 ug/mL (FIG. 2I)
[13] = target: anti-A2M antibody (MAB) labeled with a donor fluorophore; assay: TR-FRET competition against acceptor-labeled A2M; A2M calibrator 0 ug/mL, reference; mean of 4 replicates (FIG. 2G)
[14] = target: anti-A2M antibody (MAB) labeled with a donor fluorophore; assay: TR-FRET competition against acceptor-labeled A2M; A2M calibrator 200 ug/mL; mean of 4 replicates (FIG. 2G)
[15] = target: anti-A2M antibody (MAB) labeled with a donor fluorophore; assay: TR-FRET competition against acceptor-labeled A2M in whole blood, multiplex calibrators (VCAM-1 + A2M), 5 min; A2M 4000 ug/mL (FIG. 2I)
[16] = target: anti-A2M antibody (MAB) labeled with a donor fluorophore; assay: TR-FRET competition against acceptor-labeled A2M in whole blood, multiplex calibrators (VCAM-1 + A2M), 5 min; A2M 200 ug/mL (FIG. 2I)
[17] = target: anti-A2M antibody (MAB) labeled with a donor fluorophore; assay: TR-FRET competition against acceptor-labeled A2M in whole blood, multiplex calibrators (VCAM-1 + A2M), 5 min; A2M 1000 ug/mL (FIG. 2I)
[18] = target: anti-A2M antibody (MAB) labeled with a donor fluorophore; assay: TR-FRET competition against acceptor-labeled A2M in whole blood, multiplex calibrators (VCAM-1 + A2M), 30 min; A2M 1000 ug/mL (FIG. 2I)
[19] = target: anti-A2M antibody (MAB) labeled with a donor fluorophore; assay: TR-FRET competition against acceptor-labeled A2M in whole blood, singleplex calibrators, 5 min; A2M 2000 ug/mL (FIG. 2I)
[20] = target: anti-A2M antibody (MAB) labeled with a donor fluorophore; assay: TR-FRET competition against acceptor-labeled A2M in whole blood, singleplex calibrators, 30 min; A2M 4000 ug/mL (FIG. 2I)
[21] = target: anti-A2M antibody (MAB) labeled with a donor fluorophore; assay: TR-FRET competition against acceptor-labeled A2M in whole blood, singleplex calibrators, 30 min; A2M 0 ug/mL, reference (FIG. 2I)
[22] = target: anti-A2M antibody (MAB) labeled with a donor fluorophore; assay: TR-FRET competition against acceptor-labeled A2M in whole blood, multiplex calibrators, 5 min; A2M 0 ug/mL, reference (FIG. 2I)
[23] = target: anti-A2M antibody (MAB) labeled with a donor fluorophore; assay: TR-FRET competition against acceptor-labeled A2M; A2M calibrator 500 ug/mL; mean of 4 replicates (FIG. 2G)
[24] = target: anti-A2M antibody (MAB) labeled with a donor fluorophore; assay: TR-FRET competition against acceptor-labeled A2M; A2M calibrator 4000 ug/mL; mean of 4 replicates (FIG. 2G)
[25] = target: anti-A2M antibody (MAB) labeled with a donor fluorophore; assay: TR-FRET competition against acceptor-labeled A2M in whole blood, singleplex calibrators, 30 min; A2M 200 ug/mL (FIG. 2I)
[26] = target: anti-A2M antibody (MAB) labeled with a donor fluorophore; assay: TR-FRET competition against acceptor-labeled A2M; A2M calibrator 1000 ug/mL; mean of 4 replicates (FIG. 2G)
[27] = target: anti-A2M antibody (MAB) labeled with a donor fluorophore; assay: TR-FRET competition against acceptor-labeled A2M in whole blood, singleplex calibrators, 5 min; A2M 4000 ug/mL (FIG. 2I)
[28] = target: anti-A2M antibody (MAB) labeled with a donor fluorophore; assay: TR-FRET competition against acceptor-labeled A2M in whole blood, multiplex calibrators (VCAM-1 + A2M), 30 min; A2M 4000 ug/mL (FIG. 2I)
[29] = target: anti-A2M antibody (MAB) labeled with a donor fluorophore; assay: TR-FRET competition against acceptor-labeled A2M in whole blood, singleplex calibrators, 5 min; A2M 200 ug/mL (FIG. 2I)
[30] = target: anti-A2M antibody (MAB) labeled with a donor fluorophore; assay: TR-FRET competition against acceptor-labeled A2M; A2M calibrator 2000 ug/mL; mean of 4 replicates (FIG. 2G)

A2M (alpha-2-macroglobulin), unlabeled analyte / calibrator
FRET signal relative to zero calibrator (quantity not given) [1]: 0.87 | FRET signal relative to zero calibrator (quantity not given) [2]: 0.74 | FRET signal relative to zero calibrator (quantity not given) [3]: 1 | FRET signal relative to zero calibrator (quantity not given) [4]: 0.72 | FRET signal relative to zero calibrator (quantity not given) [5]: 0.43 | FRET signal relative to zero calibrator (quantity not given) [6]: 0.45 | FRET signal relative to zero calibrator (quantity not given) [7]: 0.59 | FRET signal relative to zero calibrator (quantity not given) [8]: 1 | FRET signal relative to zero calibrator (quantity not given) [9]: 0.71 | FRET signal relative to zero calibrator (quantity not given) [10]: 0.71 | FRET signal relative to zero calibrator (quantity not given) [11]: 0.45 | FRET signal relative to zero calibrator (quantity not given) [12]: 0.58 | F/B Mean [13]: 1 | F/B Mean [14]: 0.905 | FRET signal relative to zero calibrator (quantity not given) [15]: 0.34 | FRET signal relative to zero calibrator (quantity not given) [16]: 0.83 | FRET signal relative to zero calibrator (quantity not given) [17]: 0.58 | FRET signal relative to zero calibrator (quantity not given) [18]: 0.56 | FRET signal relative to zero calibrator (quantity not given) [19]: 0.43 | FRET signal relative to zero calibrator (quantity not given) [20]: 0.33 | FRET signal relative to zero calibrator (quantity not given) [21]: 1 | FRET signal relative to zero calibrator (quantity not given) [22]: 1 | F/B Mean [23]: 0.795 | F/B Mean [24]: 0.393 | FRET signal relative to zero calibrator (quantity not given) [25]: 0.88 | F/B Mean [26]: 0.666 | FRET signal relative to zero calibrator (quantity not given) [27]: 0.33 | FRET signal relative to zero calibrator (quantity not given) [28]: 0.33 | FRET signal relative to zero calibrator (quantity not given) [29]: 0.88 | F/B Mean [30]: 0.532
